Two substances from patent publication US20100215682A1 can be followed below.

The target of test [1] is HBsAg-gp120 hybrid virus-like particles, gp120 89.6 with loop C deletion (424-432 …, beta 20-21 loop) (hepatitis B virus; HIV-1 strain 89.6). Nature of the test: ELISA, gp120-HBsAg particles coated on the plate. A general note: ELISA stands for enzyme-linked immunosorbent assay.
Test [2] shares this target. Nature of the test: ELISA, gp120-HBsAg particles coated on the plate; mean of six experiments.
For test [3] the target is unchanged. Briefly: ELISA, half maximal binding compared, gp120-HBsAg particles coated on the plate.

For the substance monoclonal F105 (antibody), the fold increase of binding against 89.6 wild type in test [1] was greater than 10 fold. In addition, the fold increase of ELISA peak OD against 89.6 wild type in test [2] is 7.1 fold. Besides, the shift in apparent affinity relative to 89.6 wild type in test [3] is greater than 100 fold.
For monoclonal IgG1 b12 (antibody), in test [1], the fold increase of binding against 89.6 wild type amounted to 3 fold and the peak OD as percent of the IIIB value (% of the IIIB value) fell in the range of 80 to 100. Also, the fold increase of ELISA peak OD against 89.6 wild type in test [2] is 2.6 fold.
